Laboratory results published in US9618511B2, “Methods and compositions for treating alzheimer's disease” (Eleanore Bennett Charitable Trust #2, priority 2008, dated 2017).

Assays:
[1] = target: T1, association between PDK1 and Akt1 (Mus musculus, UniProt Q9Z2A0); experiment: PDK and Akt1 interaction assay (cell extracts, IP/western pull-down); format: binding, mouse (C2C12 myotubes); conditions: for association between Akt and PDK1 (co-immunoprecipitation): 5 μM, mixed cell extracts, 30 min at 30° C.
T1 construct: These were relatively enriched with endogenous PDK; expressed in transfected cells; host or cells: mouse C2C12 myotubes infected with Adv WT-Akt; control C2C12 extracts as source of endogenous PDK1
T1 sequence (Q9Z2A0 1-559): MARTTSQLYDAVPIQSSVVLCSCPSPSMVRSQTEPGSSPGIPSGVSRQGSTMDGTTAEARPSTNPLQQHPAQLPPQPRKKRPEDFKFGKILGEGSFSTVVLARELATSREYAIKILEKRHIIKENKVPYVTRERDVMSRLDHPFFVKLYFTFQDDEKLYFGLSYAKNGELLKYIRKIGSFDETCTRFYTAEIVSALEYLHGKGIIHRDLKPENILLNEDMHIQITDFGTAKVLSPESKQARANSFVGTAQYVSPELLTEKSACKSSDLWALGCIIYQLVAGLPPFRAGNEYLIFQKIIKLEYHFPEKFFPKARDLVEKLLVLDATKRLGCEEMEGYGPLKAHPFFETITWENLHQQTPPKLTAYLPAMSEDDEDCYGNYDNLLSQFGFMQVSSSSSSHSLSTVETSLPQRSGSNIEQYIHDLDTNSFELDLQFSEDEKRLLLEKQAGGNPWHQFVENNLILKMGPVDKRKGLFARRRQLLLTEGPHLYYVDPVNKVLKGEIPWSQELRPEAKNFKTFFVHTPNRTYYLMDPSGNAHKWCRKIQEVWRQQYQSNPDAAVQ
Description: Accordingly, the effect of Aβ on PDK/Akt interactions may be evaluated in any suitable in vitro assay. In some embodiments, PDK1 may be prepared from extracts of mouse C2C12 myotube cultures. To increase the amount of available Akt, this protein may be prepared from C2C12 myotubes that had previously been infected with an adenovirus expressing wild type Akt (Adv-wtAkt). In some embodiments, to measure the interaction between these proteins, the cell extracts above were mixed for 30 minutes at 30° C. either in the presence or absence of added 5 μM Aβ1-42. […] The inability of PDK1 to interact with its target Akt led to a decrease in Akt activation and a loss of the subsequent downstream phosphorylations (e.g., GSK3β peptide as in FIGS. 3A and 3C, not shown).
For cell-based interaction studies, intracellular Aβ42 production was induced by infecting C2C12 myotubes with Adv Aβ/TetOn. These cell extracts (100 μg) were used to IP endogenous Akt, and from this pull-down, determine the levels of associated PDK by western blot. The in vitro interaction study involved first enriching for Akt through viral-mediated expression of WT-Akt. Akt-enriched/PDK-depleted extract was then prepared by removing the PDK, via immunoprecipitation, from the Akt-enriched cell extract. Akt-depleted extracts were prepared from control extracts by pre-immunoprecipitating Akt. These were relatively enriched with endogenous PDK. The enrichments and depletions were confirmed by western blot analysis. The interaction assay contained a mixture of 100 μg Akt-enriched and 100 μg control cell extract in the presence or absence of Aβ42 (up to 10 μM). The mixtures were incubated for 30 minutes at 30° C., followed by overnight incubation at 4° C. with goat anti-Akt1. Protein G beads were added with mixing for 1.5 hr. PDK1 and Akt1 levels were determined by western blot. In control experiments, 100 μg of Akt-enriched, PDK-depleted extract and 100 μg of a control extract depleted for Akt were mixed in the presence or absence of Aβ42 (up to 5 μM) and subjected to the same analyses.

[2] = system: C2C12 myotubes; experiment: Extracellular peptide or insulin treatment of C2C12 myotubes, western blot of Akt signaling; format: cell-based, mouse
Description: The prior cell-based and in vitro experiments are relevant to […] Aβ effects. To determine the specificity of Akt inhibition by […] Aβ, C2C12 myotubes were cultured, and treated with extracellular Aβ25-35, Aβ35-25, Aβ1-42 and Aβ42-1 for 24 hours. In the last 30 minutes before harvest, insulin was added (0.1 μg/ml). While p-Akt (Ser473) and p-GSK-3 α/β levels were increased by insulin treatment (FIG. 9C, lane 2 vs. 1), they were not affected by any of the Aβ treatments. […] There were also no significant changes in p-Akt (Ser473) levels (data not shown). […] PDK itself is subject to phosphorylation (e.g., at Ser 241) and several authors feel that it is constitutively phosphorylated and thus ‘primed’ (Casamayor, A., Morrice, N. A., and Alessi, D. R., 1999, Phosphorylation of Ser-241 is essential for the activity of 3-phosphoinositide-dependent protein kinase-1: identification of five sites of phosphorylation in vivo, Biochem J 342 (Pt 2):287-292). The experiments described herein indicate that p-PDK levels are constitutively high in C2C12 cells and not boosted further by insulin action (FIG. 9E, top). p-PDK levels were not modulated by extracellular (FIG. 9E lower panel) or intracellular Aβ expression (not shown).
In FIG. 9C C2C12 myotubes were bath exposed to AP25-35, reverse AP35-25, AP1-42 and reverse Aβ42-1 peptides for 24 hours before treatment with insulin (0.1 μg/ml, 15 min) Whole cell extracts were subjected to Western analysis for p-Akt (Ser473) (Akt activation) and total Akt levels (top) as well as for endogenous levels of pGSK-3a/p, indicative of Akt activity, and total GSK-3β (lower two blots). […] The increase was not affected by pre-treatment with extracellular AR.
In FIG. 9D C2C12 myotube cultures were exposed to increasing doses of A[i1-42 (0, 10 and 25 μM) for 2 hours before treatment with insulin (0, 20, 100 and 500 ng/ml) for 15 min Harvested cell extracts were used for western blot for p-Akt (Thr308).

- association between Akt and PDK1 (co-immunoprecipitation) [1]: pulled-down less PDK
- association between Akt and PDK1 (co-immunoprecipitation) ([1]; listed as Aβ1-42): dramatic reduction
- pull-down of PDK1 with Akt1 ([1]; 10 μM, Akt-enriched plus control extracts): abrogated
Substance: Aβ42: synthetic 42 amino acid β-amyloid peptide, forward sequence, freshly prepared, predominantly monomeric (BioSource)
- p-PDK (Ser241) levels ([2]; extracellular 1-100 nM, 2 or 24 hours, then insulin 500 ng/ml 30 min): remain unaffected
- p-Akt (Ser473) and p-GSK-3 α/β levels after insulin ([2]; extracellular peptide 24 hours, then insulin 0.1 μg/ml): not affected
- p-Akt (Thr308) levels, insulin dose response ([2]; extracellular, up to 25 μM in the media, insulin 20, 100, 500 ng/ml): did not affect
